What all share (assay): cell-based or functional assay
Test [1] addresses T1, CLR/RAMP2 receptor (UniProt Q16602 23-461; O60895 43-175, limits assumed).
The target in test [2] is T1, CLR/RAMP2 receptor. The source holds these as a separate data set.
Test [3] concerns the target T2, CLR/RAMP1 receptor (UniProt Q16602 23-461; O60894 27-148, limits assumed).
The target in test [4] is CLR/RAMP3 receptor (UniProt Q16602 23-461; O60896 24-148, limits assumed).
For test [5], the target named is T3, type 1 angiotensin II receptor AGTR1 (UniProt P30556 1-359, limits assumed).
T3 sequence (looked up): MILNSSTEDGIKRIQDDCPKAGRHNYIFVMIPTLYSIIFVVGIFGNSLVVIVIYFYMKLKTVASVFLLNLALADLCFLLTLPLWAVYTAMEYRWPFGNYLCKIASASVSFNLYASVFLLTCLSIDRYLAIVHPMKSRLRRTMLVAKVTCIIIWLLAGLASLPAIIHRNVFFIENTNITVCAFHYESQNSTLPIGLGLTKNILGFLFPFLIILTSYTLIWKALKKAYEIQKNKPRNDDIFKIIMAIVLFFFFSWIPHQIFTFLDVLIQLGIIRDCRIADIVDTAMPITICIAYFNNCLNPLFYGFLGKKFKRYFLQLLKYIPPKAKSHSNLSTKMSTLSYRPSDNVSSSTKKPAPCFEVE

Test [6] concerns the target T3, type 1 angiotensin II receptor AGTR1. This is another data set of the same source.
Test [7] has as its target T1, CLR/RAMP2 receptor. This is another data set of the same source.
Test [8] deals with T2, CLR/RAMP1 receptor. This is another data set of the same source.
Test [9] concerns the target neurotensin receptor 1 (NTSR1) (UniProt P30989 1-418, limits assumed).

Like-named read-outs stand apart in the source and are kept apart here. * marks the point of attachment. Palmitoyl = CCCCCCCCCCCCCCCC(=O)*

CLR/RAMP3 receptor, sequence (Q16602 23-461 limits assumed, chain 1 of 2): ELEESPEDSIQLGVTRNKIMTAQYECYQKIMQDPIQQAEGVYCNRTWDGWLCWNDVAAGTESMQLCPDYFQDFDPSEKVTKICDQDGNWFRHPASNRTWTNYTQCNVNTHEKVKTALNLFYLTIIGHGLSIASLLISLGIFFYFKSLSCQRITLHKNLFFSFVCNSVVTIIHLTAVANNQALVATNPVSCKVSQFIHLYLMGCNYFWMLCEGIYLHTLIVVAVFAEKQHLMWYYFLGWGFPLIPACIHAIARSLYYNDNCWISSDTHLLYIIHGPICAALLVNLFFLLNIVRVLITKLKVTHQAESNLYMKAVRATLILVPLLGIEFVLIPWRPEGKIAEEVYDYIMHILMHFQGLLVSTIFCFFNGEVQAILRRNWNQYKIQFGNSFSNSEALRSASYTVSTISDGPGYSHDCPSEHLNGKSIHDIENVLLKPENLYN
CLR/RAMP3 receptor, sequence (O60896 24-148 limits assumed, chain 2 of 2): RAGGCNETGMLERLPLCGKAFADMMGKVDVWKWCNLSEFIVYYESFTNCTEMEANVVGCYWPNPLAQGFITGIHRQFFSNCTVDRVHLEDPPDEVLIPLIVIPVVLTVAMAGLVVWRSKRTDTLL
T1 sequence (Q16602 23-461 limits assumed, chain 1 of 2): as the sequence (Q16602 23-461 limits assumed, chain 1 of 2) above
T1 sequence (O60895 43-175 limits assumed, chain 2 of 2): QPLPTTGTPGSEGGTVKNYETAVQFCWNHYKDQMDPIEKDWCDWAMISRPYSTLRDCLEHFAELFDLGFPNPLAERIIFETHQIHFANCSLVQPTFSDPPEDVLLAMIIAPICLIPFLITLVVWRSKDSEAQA
T2 sequence (Q16602 23-461 limits assumed, chain 1 of 2): as the sequence (Q16602 23-461 limits assumed, chain 1 of 2) above
T2 sequence (O60894 27-148 limits assumed, chain 2 of 2): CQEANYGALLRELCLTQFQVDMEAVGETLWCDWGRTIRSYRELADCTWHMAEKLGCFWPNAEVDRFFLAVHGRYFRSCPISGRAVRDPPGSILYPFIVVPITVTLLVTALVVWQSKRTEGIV
neurotensin receptor 1 (NTSR1), sequence (P30989 whole entry): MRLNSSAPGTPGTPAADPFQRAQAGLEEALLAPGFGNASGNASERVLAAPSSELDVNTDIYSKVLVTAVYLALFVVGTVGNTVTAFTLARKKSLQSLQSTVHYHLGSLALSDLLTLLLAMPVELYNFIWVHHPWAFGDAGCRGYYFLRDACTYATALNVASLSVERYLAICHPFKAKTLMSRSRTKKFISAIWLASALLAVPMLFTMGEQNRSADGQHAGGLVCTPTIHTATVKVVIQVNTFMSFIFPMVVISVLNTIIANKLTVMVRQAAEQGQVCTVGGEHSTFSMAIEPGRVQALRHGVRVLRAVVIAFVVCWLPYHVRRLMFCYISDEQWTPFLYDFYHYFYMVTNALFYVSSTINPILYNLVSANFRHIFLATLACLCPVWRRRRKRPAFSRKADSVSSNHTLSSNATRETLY

“Wild type ADM positive (human ADM positive control) (from UniProt P35318 95-146) (peptide)”: the CLR/RAMP2 Max Activity (% of positive controls) in test [1] is 100.

In the case of Palmitoyl-KGCRFGTCTVQKLAHQIYQFTDKDVAPRSKISPQGY-NH2 (ends and bridges not checked) [SEQ ID NO: 103], the “CLR/RAMP2 EC50” value in [2] came to 0.7 nM. Moreover, in test [3], the “CLR/RAMP1 EC50” value was 4.5 nM. Also, the “CLR/RAMP3 EC50” value in test [4] worked out at 0.3 nM.

As for RVYVHPAKGCRFGTCTVQKLAHQIYQFTDKDVAPRSKISPQGY (Sar at N-terminus (Sar-RVYVHPA); miniPEG before K(PAL); K(PAL); -NH2) [AGTR1 antagonist/CLR/RAMP agonist MRL (SEQ ID NO: 234)], the “AGTR1 IC50 (calcium flux assay)” value in test [5] was 19.9 nM. The “AGTR1 IC50 (calcium flux assay)” value in test [6] was determined as 20 nM. Also, in test [7], the “CLR/RAMP2 EC50” value was found to be 1 nM and the “CLR/RAMP2 Max Activity” value was 86 % of positive controls. Also, in test [8], the “CLR/RAMP1 EC50” value was 0.3 nM and the “CLR/RAMP1 Max Activity” value is 132 % of positive controls.

As for miniPEG-KGCRFGTCTVQKLAHQIYQFTDKDSAPVDPSSPHSY-NH2 (cysteine pairing not given here; also: K(PAL) present, lysine not given here) [SEQ ID NO: 48], in [2], the “CLR/RAMP2 EC50” value worked out at 0.2 nM. In addition, the “CLR/RAMP1 EC50” value in test [3] was 0.3 nM. In addition, the “CLR/RAMP3 EC50” value in [4] stood at 0.07 nM.

B1: NTSR1 agonist and CLR/RAMP antagonist MRL (SEQ ID NO: 224) (peptide)
peptide: XLYENKPRRPYILKVQKLSAPVDPSSPHSY
modifications: not fully specified; Pyr(glu)- at N-terminus; miniPEG between LYENKPRRPYIL and K(Pal); K(Pal); -NH2
Consider B1, for which, in [9], the “NTSR1 EC50 (calcium flux assay)” value amounted to 26 nM and the “NTSR1 Max Activity” value was 57 % of positive controls. Also, in test [7], the “CLR/RAMP2 IC50” value worked out at 1.5 nM and the “CLR/RAMP2 Max Activity (antagonist)” value was 100 % of positive controls. In addition, in test [8], the “CLR/RAMP1 IC50” value is under 0.5 nM and the “CLR/RAMP1 Max Activity (antagonist)” value was 99 % of positive controls.

For the molecule miniPEG-KGCRFGTCTVQKLAHQIYQFTDKDKDNVAPRSKISPQGY-NH2 (ends and bridges not checked; also: K(PAL), position not given here) [SEQ ID NO: 69], the “CLR/RAMP2 EC50” value in [2] is 0.6 nM. In addition, the “CLR/RAMP1 Max Activity” value in test [3] was 70 % of positive control. Also, the “CLR/RAMP3 EC50” value in test [4] was 0.6 nM.

These data come from patent US20190153059A1 (ADEPTHERA, published 2019).
